Here are results for 3 molecules from patent US9599627B2, “NMR methods for monitoring blood clot formation” (T2 Biosystems, Inc., priority 2011, dated 2017).

The test system of one assay is human platelets. The experiment in a line: T2 relaxation 3D plots of clotting whole blood containing abciximab. Format: cell-based. How it is done:
T2 relaxation rate data was collected from CK blood samples drawn from healthy patients. For each sample, a series of T2 decay curves were measured over a period of 50 minutes. The decay curves were each processed using an inverse Laplace transform (ILT CONTIN) to provide an array of curves showing T2 intensity as a function of T2 time. […] FIG. 20 illustrates the 3D data sets for patient samples 29328 and 29350 collected on a Bruker minispec. […] At a time between 5 minutes and 30 minutes, the single water population diverged into two significant water populations. These two water populations correspond to the two components of the clot, i.e., the retracted clot and the serum surrounding the retracted clot. […] For some samples these two peaks were not entirely resolved. […]
In a first experiment, four aliquots of patient sample 29488 were prepared with different concentrations of abciximab (0, 2, 4, and 8 μg/mL) prior to initiation of the clotting process. The T2 relaxation times for the four samples were measuring over the course of clot formation and the corresponding 3D plots were determined using the technique described in Example 13. […] This physical change is evidenced and quantified in the corresponding 3D plots (FIG. 21), showing fast exchange of water within the uniform sample at the highest concentration of abciximab.

Another assay relates to whole blood sample. The experiment in a line: TEG clot strength (MA) of whole blood samples containing abciximab. The conditions noted are these: patient sample 29494. Format: cell-based, human. How it is done: The TEG Hemostasis Analyzer provides quantitative and qualitative measurements of the physical properties of a clot (Samara et al., Thromb. Res. 115:89-94, 2005). In the present example, the maximum amplitude (MA) and the coagulation time (R) were measured for the thrombin generated clot sample. MA is an indicator of the viscoelasticity of clot formation or clot strength and is dependent on platelet aggregation and fibrin formation and polymerization. R is the period of time of latency until initial fibrin formation and has been correlated with the velocity of thrombin generation.
The clotting of a whole blood sample was perturbed using the antithrombotic agent abciximab (ReoPro®). Abciximab is the Fab fragment of a human-murine monoclonal antibody that binds to the Ith/IIIa receptor of human platelets and inhibits platelet aggregation. Abciximab serves to inhibit the retraction of a clot during the clotting process.
Samples containing abciximab were prepared according to the following procedure and referenced in the application and Figures by a number corresponding to the concentration of abciximab in units of μg/mL.
1. Blood was drawn from normal donors into six citrate tubes. Normal donors must not have taken aspirin or any anti-platelet drug in the past two weeks.
2. The six tubes of blood were pooled and mixed gently by inversion eight to ten times. Samples were used within two hours of collection.
3. A abciximab solution (10 mg/5 mL) was diluted at a ratio of 1:4 using saline as a diluent to form “solution 1.”
4. The blood was spiked with solution 1 and saline according to Table 5
5. […]
In a second experiment, five aliquots of patient sample 29494 were prepared with different concentrations (0, 2, 4, 8, and 0 μg/mL) of abciximab prior to initiation of the clotting process. The T2 relaxations times for the samples were measured in series, with each set of measurements lasting approximately 50 min. […] The corresponding TEG-determined MA values for these samples was 60.7, 61.4, 30.4, and 22.0, respectively.

A further assay concerns fibrin. The experiment in a line: Simulated fibrinolysis in healthy patient blood, T2Coagulation T2B versus TEG LY30. In kind it is cell-based, human. The conditions noted are these: kaolin runs. How it is done:
Five different healthy patient samples were used to test whether T2Coagulation was sensitive to fibrinolysis. Addition of tissue plasminogen activator (TPA) was used to simulate fibrinolysis by adding it at two levels to healthy patient blood. TPA cleaves fibrin as it forms. It was observed that fibrinolysis can be detected within 10 minutes on T2Coagulation, which is less than half the time required for detection on TEG. For all five patients there was a clear difference between healthy and fibrinolytic samples.
There are several potential features that can be used for this correlation. Three that were investigated were the difference between (i) the minimum and maximum T2B values (FIG. 13), (ii) the average of the T2B values over the final 25 minutes of the T2B curves, and (iii) the T2B values at 10 minutes. All had correlations with R^2 values between 0.72 and 0.79. The correlation plots show a higher sensitivity of T2Coagulation for fibrinolysis than TEG. This can be seen by the groupings for the different levels of fibrinolysis in FIG. 13. The healthy patient samples are circled with the solid line. […] The T2Coagulation T2B term can be detected in as little as 10 minutes, which is much faster than the TEG LY30 term can be detected, indicating the utility of the T2Coagulation signal for more rapid measurement of fibrinolysis.

The next assay deals with whole blood fibrinolysis. The experiment in a line: T2MR whole blood fibrinolysis with spiked TPA. Format: cell-based, human. The conditions noted are these: TPA 100 U/mL, blood from a healthy donor. The protocol: The T2MR surface is also sensitive to whole blood fibrinolysis. To assess this, healthy donor samples were spiked with tissue plasminogen activator (TPA).
TPA was added at 100 U/mL to blood from a healthy donor. In the absence of TPA (see FIG. 27a) two stable peaks form at the expected clotting time. With 100 U/mL of TPA (see FIG. 27b) the clot forms at the expected time, but proves to be unstable after 20-30 minutes. Both the instability and the distance between the final T2 peaks indicate sensitivity to fibrinolysis induced by the presence of TPA.
The T2MR effect on fibrinolysis was expressed in AU values (arbitrary units; see FIG. 27c) obtained by calculating the difference between the maximum and minimum T2 value observed for the clot signal (or T2B) in the T2 time curve.
Fibrinolysis was monitored by T2 magnetic resonance (T2MR) in five patient blood samples with and without the addition of TPA (100 U/mL) (FIG. 27c). […] All other samples required addition of TPA to induce fibrinolysis, as confirmed by the reference method.

B1: abciximab (antibody, chains of the INN, looked up, V domains shown)
VH: EVQLQQSGTVLARPGASVKMSCEASGYTFTNYWMHWVKQRPGQGLEWIGAIYPGNSDTSYIQKFKGKAKLTAVTSTTSVYMELSSLTNEDSAVYYCTLYDGYYVFAYWGQGTLVTVSA
VL: EIVLTQSPVTLSVTPGDSVSLSCRASRDISNNLHWFQQTSHESPRLLIKYASQSMSGIPSRFSGSGSGTDFTLSINSVETEDFGMYFCQQTNSWPYTFGGGTKLEIK
modifications: Fab
In the case of B1, the “effect on clot associated T2 signal intensity” value with human platelets (8 μg/mL Reopro, T2reader, versus native sample) was “reduces the signal intensity of the clot associated signal”. Further, the “phases (retracted clot and serum water populations) visible within the clot” value with human platelets (highest concentration of abciximab (8 μg/mL), patient sample 29488, Bruker minispec) is recorded as “no longer two phases visible within the clot”. In addition, the results for the “TEG-determined MA value” in the assay with whole blood sample (abciximab 2 μg/mL), in the assay with whole blood sample (abciximab 4 μg/mL) and with whole blood sample (abciximab 8 μg/mL) were 61.4, 30.4 and 22.0, respectively.

B2: Cathflo®: recombinant alteplase manufactured by Genentech (protein, UniProt P00750 36-562, looked up)
Tissue-type plasminogen …: SYQVICRDEKTQMIYQQHQSWLRPVLRSNRVEYCWCNSGRAQCHSVPVKSCSEPRCFNGGTCQQALYFSDFVCQCPEGFAGKCCEIDTRATCYEDQGISYRGTWSTAESGAECTNWNSSALAQKPYSGRRPDAIRLGLGNHNYCRNPDRDSKPWCYVFKAGKYSSEFCSTPACSEGNSDCYFGNGSAYRGTHSLTESGASCLPWNSMILIGKVYTAQNPSAQALGLGKHNYCRNPDGDAKPWCHVLKNRRLTWEYCDVPSCSTCGLRQYSQPQFRIKGGLFADIASHPWQAAIFAKHRRSPGERFLCGGILISSCWILSAAHCFQERFPPHHLTVILGRTYRVVPGEEEQKFEVEKYIVHKEFDDDTYDNDIALLQLKSDSSRCAQESSVVRTVCLPPADLQLPDWTECELSGYGKHEALSPFYSERLKEAHVRLYPSSRCTSQHLLNRTVTDNMLCAGDTRSGGPQANLHDACQGDSGGPLVCLNDGRMTLVGIISWGLGCGQKDVPGVYTKVTNYLDWIRDNMRP
modifications: alteplase
notes: recombinant alteplase manufactured by Genentech
For B2, the “degree of fibrinolysis of samples” value in the assay with fibrin (60 ng/mL Cathflo in healthy patient blood) was “partially fibrinolytic”; with fibrin (118 ng/mL Cathflo in healthy patient blood), “fully fibrinolytic”.

B3: tissue plasminogen activator (protein, UniProt P00750 36-562, looked up)
Tissue-type plasminogen …: SYQVICRDEKTQMIYQQHQSWLRPVLRSNRVEYCWCNSGRAQCHSVPVKSCSEPRCFNGGTCQQALYFSDFVCQCPEGFAGKCCEIDTRATCYEDQGISYRGTWSTAESGAECTNWNSSALAQKPYSGRRPDAIRLGLGNHNYCRNPDRDSKPWCYVFKAGKYSSEFCSTPACSEGNSDCYFGNGSAYRGTHSLTESGASCLPWNSMILIGKVYTAQNPSAQALGLGKHNYCRNPDGDAKPWCHVLKNRRLTWEYCDVPSCSTCGLRQYSQPQFRIKGGLFADIASHPWQAAIFAKHRRSPGERFLCGGILISSCWILSAAHCFQERFPPHHLTVILGRTYRVVPGEEEQKFEVEKYIVHKEFDDDTYDNDIALLQLKSDSSRCAQESSVVRTVCLPPADLQLPDWTECELSGYGKHEALSPFYSERLKEAHVRLYPSSRCTSQHLLNRTVTDNMLCAGDTRSGGPQANLHDACQGDSGGPLVCLNDGRMTLVGIISWGLGCGQKDVPGVYTKVTNYLDWIRDNMRP
notes: cleaves fibrin as it forms
Turning to B3, the “time after which the clot proves to be unstable” value in the assay on whole blood fibrinolysis was in the range of 20 to 30 min.
